{"source": "paper PMC10499909", "origin": "cited, not measured here", "biological_target": "lactoferrin (species not stated, cited Kd) (UniProt P02788)", "sequence (P02788 20-710)": "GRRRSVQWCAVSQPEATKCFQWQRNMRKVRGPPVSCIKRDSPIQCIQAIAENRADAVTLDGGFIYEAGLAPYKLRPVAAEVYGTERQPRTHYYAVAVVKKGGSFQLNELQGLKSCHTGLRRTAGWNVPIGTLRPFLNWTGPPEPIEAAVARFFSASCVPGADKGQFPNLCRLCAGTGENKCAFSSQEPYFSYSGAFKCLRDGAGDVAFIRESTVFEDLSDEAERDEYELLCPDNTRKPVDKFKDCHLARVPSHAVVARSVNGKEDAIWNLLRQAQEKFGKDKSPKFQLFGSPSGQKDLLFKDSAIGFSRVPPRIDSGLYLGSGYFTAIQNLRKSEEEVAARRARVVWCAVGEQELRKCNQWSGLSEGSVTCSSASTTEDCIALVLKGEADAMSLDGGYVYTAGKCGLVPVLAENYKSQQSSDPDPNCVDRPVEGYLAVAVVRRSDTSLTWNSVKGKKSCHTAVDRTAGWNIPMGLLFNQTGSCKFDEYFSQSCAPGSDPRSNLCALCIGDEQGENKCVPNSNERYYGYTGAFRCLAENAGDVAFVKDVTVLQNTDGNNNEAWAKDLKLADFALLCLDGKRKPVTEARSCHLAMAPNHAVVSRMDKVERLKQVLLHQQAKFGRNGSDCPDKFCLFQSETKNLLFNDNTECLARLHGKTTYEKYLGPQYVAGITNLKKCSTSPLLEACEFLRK", "settings": "PBS pH 6.8, 37 °C, 30 min in dark; CDs-aptamer 0.05 mg/mL with graphene oxide nanosheets"}
{"sequence": "AGGCAGGACACCGTAACCGGTGCATCTATGGCTACTAGCTCTTCCTGCCT [LF aptamer]", "values": [{"measurement": "Kd", "value": 4.97, "unit": "nM"}]}
